According to article PMC5028032, “Linkage between Fitness of Yeast Cells and Adenylate Kinase Catalysis” (PLoS ONE, 2016):

System: Nc1ncnc2c1ncn2[C@@H]1O[C@H](COP(=O)(O)OP(=O)(O)OP(=O)(O)O)[C@@H](O)[C@H]1O
Test: purified protein
Settings: 300 μM AMP constant, 2 mM MgCl2, 80 mM KCl, 100 mM Tris pH 7.5, 20°C

| Substance | Km [µM] | kcat [s⁻¹] | kcat/Km [M⁻¹ s⁻¹] |
| --- | --- | --- | --- |
| Adkeco (Escherichia coli K-12) | 72 ± 8 | 305 | 4.26e+06 |
| Adkeco (Escherichia coli K-12; G10V) | 411 ± 61 | 60 | 140000 |
| Adkeco (Escherichia coli K-12; T163C) | 37 ± 2 | 143 | 3.9e+06 |
